Measurements taken from patent publication US20220119490A1 (Genentech, published 2022).

T1: PTPRD G203E K204E variant extracellular domain (human, UniProt P23468 21-1265)
T1 construct: extracellular domain; also called G203E/K204E double mutant; IG2 mutant
T1 sequence (looked up): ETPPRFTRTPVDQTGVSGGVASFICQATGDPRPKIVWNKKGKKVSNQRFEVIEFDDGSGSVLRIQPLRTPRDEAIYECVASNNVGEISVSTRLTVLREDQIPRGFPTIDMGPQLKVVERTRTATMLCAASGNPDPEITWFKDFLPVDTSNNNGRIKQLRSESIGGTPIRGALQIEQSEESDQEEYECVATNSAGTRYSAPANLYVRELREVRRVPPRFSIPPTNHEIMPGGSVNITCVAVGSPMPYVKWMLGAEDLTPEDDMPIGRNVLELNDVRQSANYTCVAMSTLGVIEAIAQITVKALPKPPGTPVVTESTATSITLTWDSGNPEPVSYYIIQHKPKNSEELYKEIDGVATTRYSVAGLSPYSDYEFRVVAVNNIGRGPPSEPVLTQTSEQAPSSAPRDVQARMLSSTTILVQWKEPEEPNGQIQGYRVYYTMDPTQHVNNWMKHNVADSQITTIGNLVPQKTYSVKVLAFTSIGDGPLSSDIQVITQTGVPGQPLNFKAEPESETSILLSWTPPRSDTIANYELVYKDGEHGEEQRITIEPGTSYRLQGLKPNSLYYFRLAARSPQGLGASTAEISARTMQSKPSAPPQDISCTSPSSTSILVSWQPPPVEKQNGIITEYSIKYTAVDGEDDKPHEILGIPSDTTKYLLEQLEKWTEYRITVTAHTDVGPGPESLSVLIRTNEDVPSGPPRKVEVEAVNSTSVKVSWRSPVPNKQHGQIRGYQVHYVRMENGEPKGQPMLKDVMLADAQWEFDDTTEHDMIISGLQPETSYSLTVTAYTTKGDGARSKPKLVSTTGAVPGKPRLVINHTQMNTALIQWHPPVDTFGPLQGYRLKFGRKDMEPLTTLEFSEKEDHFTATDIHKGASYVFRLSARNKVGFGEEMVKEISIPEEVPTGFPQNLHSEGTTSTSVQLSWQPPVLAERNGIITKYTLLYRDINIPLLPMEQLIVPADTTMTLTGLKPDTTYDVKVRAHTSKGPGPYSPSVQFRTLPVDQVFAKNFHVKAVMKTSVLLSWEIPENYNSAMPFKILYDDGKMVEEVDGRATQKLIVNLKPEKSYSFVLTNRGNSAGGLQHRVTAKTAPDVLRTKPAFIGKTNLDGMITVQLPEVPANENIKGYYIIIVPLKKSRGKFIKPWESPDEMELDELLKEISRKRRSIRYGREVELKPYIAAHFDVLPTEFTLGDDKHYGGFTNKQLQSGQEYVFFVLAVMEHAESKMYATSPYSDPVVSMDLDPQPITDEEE

T2: PTPRO expressed on cells (human, UniProt Q16827 30-1216)
T2 construct: whole, on cells
T2 sequence (looked up): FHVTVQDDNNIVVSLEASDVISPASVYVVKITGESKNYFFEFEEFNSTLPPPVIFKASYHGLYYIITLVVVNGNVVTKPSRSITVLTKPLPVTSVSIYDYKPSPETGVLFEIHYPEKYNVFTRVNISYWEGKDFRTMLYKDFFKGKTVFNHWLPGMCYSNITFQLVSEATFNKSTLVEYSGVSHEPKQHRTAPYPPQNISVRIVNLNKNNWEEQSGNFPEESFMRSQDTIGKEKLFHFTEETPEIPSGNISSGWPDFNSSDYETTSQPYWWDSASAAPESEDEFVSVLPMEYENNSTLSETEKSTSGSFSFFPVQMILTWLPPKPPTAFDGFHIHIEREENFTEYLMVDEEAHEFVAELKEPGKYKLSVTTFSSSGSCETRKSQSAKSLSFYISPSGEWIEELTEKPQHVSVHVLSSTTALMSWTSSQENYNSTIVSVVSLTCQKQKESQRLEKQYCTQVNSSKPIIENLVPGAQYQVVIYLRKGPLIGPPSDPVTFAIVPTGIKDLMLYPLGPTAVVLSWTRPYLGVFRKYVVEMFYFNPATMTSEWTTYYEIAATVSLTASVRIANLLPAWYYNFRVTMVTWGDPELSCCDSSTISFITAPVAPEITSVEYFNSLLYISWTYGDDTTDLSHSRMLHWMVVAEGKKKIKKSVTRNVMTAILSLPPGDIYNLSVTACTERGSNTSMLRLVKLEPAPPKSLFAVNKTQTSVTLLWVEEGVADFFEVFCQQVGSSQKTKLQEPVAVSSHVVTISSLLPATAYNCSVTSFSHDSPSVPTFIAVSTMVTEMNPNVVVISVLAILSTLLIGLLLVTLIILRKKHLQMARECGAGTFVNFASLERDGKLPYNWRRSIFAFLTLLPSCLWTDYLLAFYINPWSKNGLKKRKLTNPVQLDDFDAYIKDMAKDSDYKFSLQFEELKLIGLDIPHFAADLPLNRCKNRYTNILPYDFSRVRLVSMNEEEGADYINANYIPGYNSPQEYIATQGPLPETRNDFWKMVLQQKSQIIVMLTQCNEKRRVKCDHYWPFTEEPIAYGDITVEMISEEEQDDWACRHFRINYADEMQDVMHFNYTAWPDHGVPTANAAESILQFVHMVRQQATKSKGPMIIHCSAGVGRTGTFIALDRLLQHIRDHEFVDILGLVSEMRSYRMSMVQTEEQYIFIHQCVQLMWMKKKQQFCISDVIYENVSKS


What was measured:
[1] = target: T1, PTPRD G203E K204E variant extracellular …; experiment: extracellular interaction screen: pentameric PTPRD variant ECD on ECD-Fc prey (FIG. 5L)
[2] = target: T3, PTPRG expressed on cells (human, UniProt P23470 20-1445); experiment: cell surface interaction assay: query ECD tetramerised with fluorescent streptavidin on transfected cells, immunofluorescence
T3 construct: whole, on cells
T3 sequence (P23470 20-1445): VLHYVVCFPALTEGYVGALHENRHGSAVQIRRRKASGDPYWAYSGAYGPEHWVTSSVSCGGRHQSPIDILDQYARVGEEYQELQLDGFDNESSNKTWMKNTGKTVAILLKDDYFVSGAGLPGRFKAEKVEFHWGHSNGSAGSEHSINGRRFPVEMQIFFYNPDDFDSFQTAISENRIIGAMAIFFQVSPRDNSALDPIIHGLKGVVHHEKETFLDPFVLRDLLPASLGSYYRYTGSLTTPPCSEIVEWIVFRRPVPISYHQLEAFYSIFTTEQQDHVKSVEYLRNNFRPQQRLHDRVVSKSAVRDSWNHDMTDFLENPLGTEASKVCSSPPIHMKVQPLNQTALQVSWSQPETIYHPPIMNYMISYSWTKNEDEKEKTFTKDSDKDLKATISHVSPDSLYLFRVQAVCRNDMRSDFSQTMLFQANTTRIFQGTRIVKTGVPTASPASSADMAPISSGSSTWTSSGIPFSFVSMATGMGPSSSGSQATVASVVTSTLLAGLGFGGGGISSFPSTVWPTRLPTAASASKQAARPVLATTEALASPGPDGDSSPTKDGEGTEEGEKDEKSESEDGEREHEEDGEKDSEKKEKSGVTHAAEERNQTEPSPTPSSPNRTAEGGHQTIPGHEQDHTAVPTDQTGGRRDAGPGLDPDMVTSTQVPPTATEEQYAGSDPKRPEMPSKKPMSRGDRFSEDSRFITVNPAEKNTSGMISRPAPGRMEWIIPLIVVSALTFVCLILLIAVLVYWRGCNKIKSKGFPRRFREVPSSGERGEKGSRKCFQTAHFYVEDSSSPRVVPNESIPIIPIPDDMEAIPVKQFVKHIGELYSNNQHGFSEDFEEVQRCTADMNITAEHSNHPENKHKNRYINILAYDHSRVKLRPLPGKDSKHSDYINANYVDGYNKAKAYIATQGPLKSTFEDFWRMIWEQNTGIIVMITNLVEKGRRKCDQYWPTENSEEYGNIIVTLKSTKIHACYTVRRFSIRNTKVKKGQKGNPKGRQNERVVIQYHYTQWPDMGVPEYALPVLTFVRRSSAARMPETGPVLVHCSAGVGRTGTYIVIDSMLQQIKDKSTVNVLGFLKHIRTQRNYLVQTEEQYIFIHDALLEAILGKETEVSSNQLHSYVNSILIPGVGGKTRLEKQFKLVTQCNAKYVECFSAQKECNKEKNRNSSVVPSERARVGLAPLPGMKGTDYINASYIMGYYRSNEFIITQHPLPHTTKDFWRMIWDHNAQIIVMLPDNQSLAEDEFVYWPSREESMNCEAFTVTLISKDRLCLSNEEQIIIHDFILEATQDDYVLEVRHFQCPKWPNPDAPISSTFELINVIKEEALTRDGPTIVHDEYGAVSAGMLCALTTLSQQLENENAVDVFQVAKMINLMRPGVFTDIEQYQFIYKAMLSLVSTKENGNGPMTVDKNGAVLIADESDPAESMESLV

[3] = target: T2, PTPRO expressed on cells; experiment: as above
[4] = target: T4, PTPRF expressed on cells (human, UniProt P10586 30-1907); experiment: as above
T4 construct: whole, on cells; also called receptor-type tyrosine-protein phosphatase F
T4 sequence (P10586 30-1907): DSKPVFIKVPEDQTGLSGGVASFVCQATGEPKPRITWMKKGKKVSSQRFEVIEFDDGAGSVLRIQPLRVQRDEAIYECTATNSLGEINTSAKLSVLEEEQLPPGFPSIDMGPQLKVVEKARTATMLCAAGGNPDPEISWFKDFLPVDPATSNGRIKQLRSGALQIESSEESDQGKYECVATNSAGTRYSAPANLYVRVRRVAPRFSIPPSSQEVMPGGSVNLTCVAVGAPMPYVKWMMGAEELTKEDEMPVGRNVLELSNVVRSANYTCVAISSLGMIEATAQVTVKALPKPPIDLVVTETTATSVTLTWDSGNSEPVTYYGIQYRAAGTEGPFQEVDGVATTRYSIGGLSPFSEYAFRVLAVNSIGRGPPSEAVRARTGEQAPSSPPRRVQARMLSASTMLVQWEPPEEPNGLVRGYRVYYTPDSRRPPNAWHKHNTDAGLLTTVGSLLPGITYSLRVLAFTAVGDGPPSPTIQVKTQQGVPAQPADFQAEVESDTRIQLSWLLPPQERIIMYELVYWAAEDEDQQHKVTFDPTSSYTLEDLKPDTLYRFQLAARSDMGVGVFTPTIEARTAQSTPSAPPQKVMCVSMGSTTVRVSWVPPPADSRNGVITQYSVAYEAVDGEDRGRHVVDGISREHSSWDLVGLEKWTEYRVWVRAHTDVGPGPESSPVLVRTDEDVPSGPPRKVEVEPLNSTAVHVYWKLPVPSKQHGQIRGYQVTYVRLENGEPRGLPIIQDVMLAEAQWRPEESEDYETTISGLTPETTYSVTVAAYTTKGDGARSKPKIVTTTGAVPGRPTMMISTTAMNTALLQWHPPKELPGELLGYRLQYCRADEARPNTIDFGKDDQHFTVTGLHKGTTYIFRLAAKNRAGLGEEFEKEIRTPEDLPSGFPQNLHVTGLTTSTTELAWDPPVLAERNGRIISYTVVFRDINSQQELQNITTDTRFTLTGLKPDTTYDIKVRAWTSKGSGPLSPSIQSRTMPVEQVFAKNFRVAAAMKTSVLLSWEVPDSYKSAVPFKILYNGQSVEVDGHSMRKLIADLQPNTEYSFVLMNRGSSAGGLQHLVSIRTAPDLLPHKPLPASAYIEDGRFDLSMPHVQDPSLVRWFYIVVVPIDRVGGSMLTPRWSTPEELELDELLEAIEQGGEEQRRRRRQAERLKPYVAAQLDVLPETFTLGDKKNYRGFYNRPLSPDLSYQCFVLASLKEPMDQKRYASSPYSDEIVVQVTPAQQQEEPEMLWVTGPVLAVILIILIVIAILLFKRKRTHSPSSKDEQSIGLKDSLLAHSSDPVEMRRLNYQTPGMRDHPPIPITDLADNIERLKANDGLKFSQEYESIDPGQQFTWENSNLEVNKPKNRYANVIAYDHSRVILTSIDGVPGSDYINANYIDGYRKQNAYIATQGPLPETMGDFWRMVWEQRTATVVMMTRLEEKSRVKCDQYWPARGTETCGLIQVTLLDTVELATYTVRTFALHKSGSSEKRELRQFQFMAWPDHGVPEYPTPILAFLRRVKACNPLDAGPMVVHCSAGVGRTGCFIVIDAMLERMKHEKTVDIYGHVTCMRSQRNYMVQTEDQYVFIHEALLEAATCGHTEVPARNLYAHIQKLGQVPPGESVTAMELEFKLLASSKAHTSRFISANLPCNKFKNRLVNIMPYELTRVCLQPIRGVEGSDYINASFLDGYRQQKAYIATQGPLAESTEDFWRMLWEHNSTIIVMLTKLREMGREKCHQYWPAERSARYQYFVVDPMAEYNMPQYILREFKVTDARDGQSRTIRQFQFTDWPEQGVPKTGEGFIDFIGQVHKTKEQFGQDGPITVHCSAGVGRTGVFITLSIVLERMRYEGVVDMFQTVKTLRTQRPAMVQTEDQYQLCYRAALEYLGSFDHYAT

[5] = target: T5, PTPRD expressed on cells (human, UniProt P23468 21-1912); experiment: as above
T5 construct: whole, on cells; also called receptor-type tyrosine-protein phosphatase delta

Binder | binding result [1] | binding result [2] | binding result [3] | binding result [4] | binding result [5]
LRFN5 extracellular domain (receptor, human, UniProt Q96NI6 18-529, looked up, extracellular domain; Streptavidin tetramer in cell assay; ECD-Fc prey in the variant screen; also called LFRN5) QICPKRCVCQILSPNLATLCAKKGLLFVPPNIDRRTVELRLADNFVTNIKRKDFANMTSLVDLTLSRNTISFITPHAFADLRNLRALHLNSNRLTKITNDMFSGLSNLHHLILNNNQLTLISSTAFDDVFALEELDLSYNNLETIPWDAVEKMVSLHTLSLDHNMIDNIPKGTFSHLHKMTRLDVTSNKLQKLPPDPLFQRAQVLATSGIISPSTFALSFGGNPLHCNCELLWLRRLSREDDLETCASPPLLTGRYFWSIPEEEFLCEPPLITRHTHEMRVLEGQRATLRCKARGDPEPAIHWISPEGKLISNATRSLVYDNGTLDILITTVKDTGAFTCIASNPAGEATQIVDLHIIKLPHLLNSTNHIHEPDPGSSDISTSTKSGSNTSSSNGDTKLSQDKIVVAEATSSTALLKFNFQRNIPGIRMFQIQYNGTYDDTLVYRMIPPTSKTFLVNNLAAGTMYDLCVLAIYDDGITSLTATRVVGCIQFTTEQDYVRCHFMQSQFLGGTM | no binding |  |  |  | 
CNTN1 extracellular domain (receptor, human, UniProt Q12860 21-993, looked up, extracellular domain; Streptavidin tetramer in cell assays; ECD-Fc in SPR; also called contactin 1) EFTWYRRYGHGVSEEDKGFGPIFEEQPINTIYPEESLEGKVSLNCRARASPFPVYKWRMNNGDVDLTSDRYSMVGGNLVINNPDKQKDAGIYYCLASNNYGMVRSTEATLSFGYLDPFPPEERPEVRVKEGKGMVLLCDPPYHFPDDLSYRWLLNEFPVFITMDKRRFVSQTNGNLYIANVEASDKGNYSCFVSSPSITKSVFSKFIPLIPIPERTTKPYPADIVVQFKDVYALMGQNVTLECFALGNPVPDIRWRKVLEPMPSTAEISTSGAVLKIFNIQLEDEGIYECEAENIRGKDKHQARIYVQAFPEWVEHINDTEVDIGSDLYWPCVATGKPIPTIRWLKNGYAYHKGELRLYDVTFENAGMYQCIAENTYGAIYANAELKILALAPTFEMNPMKKKILAAKGGRVIIECKPKAAPKPKFSWSKGTEWLVNSSRILIWEDGSLEINNITRNDGGIYTCFAENNRGKANSTGTLVITDPTRIILAPINADITVGENATMQCAASFDPALDLTFVWSFNGYVIDFNKENIHYQRNFMLDSNGELLIRNAQLKHAGRYTCTAQTIVDNSSASADLVVRGPPGPPGGLRIEDIRATSVALTWSRGSDNHSPISKYTIQTKTILSDDWKDAKTDPPIIEGNMEAARAVDLIPWMEYEFRVVATNTLGRGEPSIPSNRIKTDGAAPNVAPSDVGGGGGRNRELTITWAPLSREYHYGNNFGYIVAFKPFDGEEWKKVTVTNPDTGRYVHKDETMSPSTAFQVKVKAFNNKGDGPYSLVAVINSAQDAPSEAPTEVGVKVLSSSEISVHWEHVLEKIVESYQIRYWAAHDKEEAANRVQVTSQEYSARLENLLPDTQYFIEVGACNSAGCGPPSDMIEAFTKKAPPSQPPRIISSVRSGSRYIITWDHVVALSNESTVTGYKVLYRPDGQHDGKLYSTHKHSIEVPIPRDGEYVVEVRAHSDGGDGVVSQVKIS |  | no binding | no binding | no binding | no binding
LRRC4B extracellular domain (receptor, human, UniProt Q9NT99 36-576, looked up, extracellular domain; ECD-Fc prey; also called NGL-3; netrin-G ligand-3) AGGGGVAVTSAAGGGSPPATSCPVACSCSNQASRVICTRRDLAEVPASIPVNTRYLNLQENGIQVIRTDTFKHLRHLEILQLSKNLVRKIEVGAFNGLPSLNTLELFDNRLTTVPTQAFEYLSKLRELWLRNNPIESIPSYAFNRVPSLRRLDLGELKRLEYISEAAFEGLVNLRYLNLGMCNLKDIPNLTALVRLEELELSGNRLDLIRPGSFQGLTSLRKLWLMHAQVATIERNAFDDLKSLEELNLSHNNLMSLPHDLFTPLHRLERVHLNHNPWHCNCDVLWLSWWLKETVPSNTTCCARCHAPAGLKGRYIGELDQSHFTCYAPVIVEPPTDLNVTEGMAAELKCRTGTSMTSVNWLTPNGTLMTHGSYRVRISVLHDGTLNFTNVTVQDTGQYTCMVTNSAGNTTASATLNVSAVDPVAAGGTGSGGGGPGGSGGVGGGSGGYTYFTTVTVETLETQPGEEALQPRGTEKEPPGPTTDGVWGGGRPGDAAGPASSSTTAPAPRSSRPTEKAFTVPITDVTENALKDLDDVMKTTK | no binding |  |  |  | 
